{"source": "patent US12558350B2", "about": "“Compositions and methods for treatment” (Bausch + Lomb Ireland Limited, priority 2005, dated 2026)", "molecules": {"B1": {"name": "sICAM-1: truncated form of native ICAM-1 without the transmembrane and cytoplasmic domains, with intact LFA-1 binding epitope; R&D Systems (protein, UniProt P05362 28-480, looked up)", "extracellular domain": "QTSVSPSKVILPRGGSVLVTCSTSCDQPKLLGIETPLPKKELLLPGNNRKVYELSNVQEDSQPMCYSNCPDGQSTAKTFLTVYWTPERVELAPLPSWQPVGKNLTLRCQVEGGAPRANLTVVLLRGEKELKREPAVGEPAEVTTTVLVRRDHHGANFSCRTELDLRPQGLELFENTSAPYQLQTFVLPATPPQLVSPRVLEVDTQGTVVCSLDGLFPVSEAQVHLALGDQRLNPTVTYGNDSFSAKASVSVTAEDEGTQRLTCAVILGNQSQETLQTVTIYSFPAPNVILTKPEVSEGTEVTVKCEAHPRAKVTLNGVPAQPLGPRAQLLLKATPEDNGRSFSCSATLEVAGQLIHKNQTRELRVLYGPRLDERDCPGNWTWPENSQQTPMCQAWGNPLPELKCLKDGTFPLPIGESVTVTRDLEGTYLCRARSTQGEVTRKVTVNVLSPRYE", "modifications": "extracellular domain", "notes": "R&D Systems"}}, "key": {"LFA-1 [1]": {"molecular_target": "T1, LFA-1 (Homo sapiens, UniProt P05107+P20701)", "T1 construct": "made in house; host or cells: human 293 cells", "T1 sequence (P20701 26-1170)": "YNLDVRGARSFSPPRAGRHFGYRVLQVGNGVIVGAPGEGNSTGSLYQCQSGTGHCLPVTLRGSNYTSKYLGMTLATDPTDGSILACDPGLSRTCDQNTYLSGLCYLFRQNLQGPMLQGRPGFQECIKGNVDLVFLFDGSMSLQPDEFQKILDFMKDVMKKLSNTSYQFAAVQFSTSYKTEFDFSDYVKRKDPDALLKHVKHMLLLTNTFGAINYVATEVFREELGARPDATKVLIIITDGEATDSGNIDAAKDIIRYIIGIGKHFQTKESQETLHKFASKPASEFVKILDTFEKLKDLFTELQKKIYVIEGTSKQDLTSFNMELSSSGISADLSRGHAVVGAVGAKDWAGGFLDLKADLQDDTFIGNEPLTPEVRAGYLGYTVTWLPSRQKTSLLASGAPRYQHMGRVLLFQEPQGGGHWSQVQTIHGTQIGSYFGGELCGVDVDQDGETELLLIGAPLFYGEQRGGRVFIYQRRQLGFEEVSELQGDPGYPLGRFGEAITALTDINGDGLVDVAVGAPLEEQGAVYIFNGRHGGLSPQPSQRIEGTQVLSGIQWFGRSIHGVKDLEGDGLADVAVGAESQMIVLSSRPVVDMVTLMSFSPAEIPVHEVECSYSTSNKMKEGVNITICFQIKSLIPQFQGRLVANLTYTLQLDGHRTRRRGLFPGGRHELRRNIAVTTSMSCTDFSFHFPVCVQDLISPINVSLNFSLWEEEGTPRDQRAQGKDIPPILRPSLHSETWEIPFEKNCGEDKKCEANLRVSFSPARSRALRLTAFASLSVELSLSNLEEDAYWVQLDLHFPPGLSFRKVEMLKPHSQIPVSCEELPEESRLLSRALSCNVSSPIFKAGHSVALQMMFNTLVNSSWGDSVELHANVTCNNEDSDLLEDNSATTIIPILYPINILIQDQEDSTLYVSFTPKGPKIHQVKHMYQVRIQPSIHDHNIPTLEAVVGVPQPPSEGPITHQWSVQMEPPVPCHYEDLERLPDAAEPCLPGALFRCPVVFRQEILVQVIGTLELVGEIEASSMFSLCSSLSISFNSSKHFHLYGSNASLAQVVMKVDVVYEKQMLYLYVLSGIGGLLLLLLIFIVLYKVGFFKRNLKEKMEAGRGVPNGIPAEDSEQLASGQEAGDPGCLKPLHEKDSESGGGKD", "T1 sequence (P05107 23-769)": "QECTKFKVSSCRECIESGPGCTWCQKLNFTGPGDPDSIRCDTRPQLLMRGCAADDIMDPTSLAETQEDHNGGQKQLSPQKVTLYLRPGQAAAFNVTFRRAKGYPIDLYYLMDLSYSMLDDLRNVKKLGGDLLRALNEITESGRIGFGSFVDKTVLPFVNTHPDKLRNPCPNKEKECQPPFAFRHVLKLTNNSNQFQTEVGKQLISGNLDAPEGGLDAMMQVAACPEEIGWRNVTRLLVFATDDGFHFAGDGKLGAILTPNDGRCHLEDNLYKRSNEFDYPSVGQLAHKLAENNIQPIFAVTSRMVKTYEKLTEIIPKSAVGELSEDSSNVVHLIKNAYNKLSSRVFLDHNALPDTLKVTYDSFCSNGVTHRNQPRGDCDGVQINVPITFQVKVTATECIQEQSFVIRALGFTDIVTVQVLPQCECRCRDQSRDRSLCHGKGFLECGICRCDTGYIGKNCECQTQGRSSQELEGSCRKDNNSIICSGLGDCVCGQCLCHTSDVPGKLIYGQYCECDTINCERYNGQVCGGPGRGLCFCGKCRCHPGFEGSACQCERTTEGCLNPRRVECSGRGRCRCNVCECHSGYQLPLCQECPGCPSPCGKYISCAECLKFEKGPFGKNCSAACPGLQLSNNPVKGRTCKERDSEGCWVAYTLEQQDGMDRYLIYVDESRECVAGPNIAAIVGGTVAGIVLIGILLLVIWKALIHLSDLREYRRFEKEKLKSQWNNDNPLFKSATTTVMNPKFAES", "experiment": "LFA-1/small molecule ELISA, antagonist competition with compound 2B", "conditions": "25 nM compound 2B; FIG. 8B; read-out: IC50, inhibition of binding of compound 2B to LFA-1", "quoted_text": "96-well plates were coated with 5 μg/ml (33.3 nM) mouse anti-human 82 integrin (a non-function blocking antibody) in phosphate-buffered saline (PBS) overnight at 4° C. The plates were blocked with assay buffer (20 mM Hepes, pH 7.2, 140 mM NaCl, 1 mM MnCl2, 0.5% bovine serum albumin (BSA) and 0.05% Tween-20) for 1 hour at room temperature. After washing in buffer (50 mM Tris-HCl, pH 7.5, 100 mM NaCl, 1 mM MnCl2, and 0.05% Tween-20), 8 nM LFA-1 (LFA-1/ICAM-1 ELISA) or 2 nM LFA-1 (LFA-1/small molecule ELISA) were added, followed by incubation for 1 h at 37° C. […] In the LFA-1/small molecule ELISA, the diluted antagonists and 25 nM compound 2B were added concurrently to the plates, followed by a 2-hour incubation at 37° C. Sheep anti-fluorescein-HRP was added after a wash and incubated for one hour at 37° C. For both assays, after washing, the bound HRP-conjugated antibodies were detected by addition of tetramethylbenzidine (TMB) followed by measurement of the absorbance of the product at 450 nm after the addition of 1 M H3PO4 to stop the reaction. The IC50 values for each curve were determined by fitting to the four-parameter equation described above using KaleidaGraph software."}, "LFA-1/ICAM-1": {"molecular_target": "T2, LFA-1/ICAM-1 (Homo sapiens, UniProt P05107+P20701)", "T2 construct": "made in house; host or cells: human 293 cells", "T2 sequence (P20701 26-1170)": "as the sequence (P20701 26-1170) above", "T2 sequence (P05107 23-769)": "as the sequence (P05107 23-769) above", "experiment": "LFA-1/ICAM-1 ligand binding ELISA with Schild analysis", "excerpt": "(§1) Pharmacologic Analysis of Drug-Receptor Interaction, Lippincott-Raven, Philadelphia). […] The order of antagonist concentrations was, -[…]-(lowest added antagonist concentration), -Δ-, -μ-, -♦-, -▪-, -σ- to -λ-(highest antagonist concentration). The fits of the data are shown as the solid lines. The data shown are from one plate and are representative of a minimum of two experiments.\nThis model is based upon the assumptions that equiactive responses in an assay are the result of equivalent occupancy of receptor by ligand and that maximal binding is unchanged by the presence of antagonist. In a Schild analysis, the dose ratio is the ratio of the EC50 values in the presence and absence of antagonist and is a measure of the ligand concentrations leading to equiactive responses. This dose ratio was determined for each concentration of antagonist and the Schild regressions were plotted as shown in FIG. 11.\n(§2) In all cases the ligand was added concurrently with the antagonist. The plates were incubated for 6 h at 37° C. to approach equilibrium conditions after antagonist and ligand addition, before wash and addition of the detection antibody. The EC50 values for each curve were determined by fitting with a four parameter model as described above. […] The slopes of the plots of the Log (Conc. ratio −1) vs. Antagonist concentration are calculated by fitting the line to the linear equation, Y=A+BX."}, "LFA-1 [2]": {"molecular_target": "T1, LFA-1", "experiment": "LFA-1/small molecule ligand binding ELISA", "conditions": "FIG. 10B, D, F", "protocol": "as §1, §2"}}}
{"molecule": "B1", "values": [{"measurement": "IC50", "setting": "LFA-1 [1]", "value": 1200, "unit": "nM"}, {"measurement": "effect of increasing antagonist concentration on ICAM-1-Ig binding curves", "setting": "LFA-1/ICAM-1; FIG. 10A, C, E", "value": "shifted the ICAM-1-Ig binding curves rightward to higher EC50 values"}, {"measurement": "slope of Schild regression", "setting": "LFA-1/ICAM-1; ligand ICAM-1-Ig, FIG. 11", "value": 1.26}, {"measurement": "y-intercept of Schild regression", "setting": "LFA-1/ICAM-1; ligand ICAM-1-Ig, FIG. 11", "value": 8.51}, {"measurement": "effect of increasing antagonist concentration on compound 2B binding curves", "setting": "LFA-1 [2]", "value": "showed a similar effect"}]}
